In US20230064378A1 (Eli Lilly, published 2023):
Changes are numbered by the printed parent chain. Each block holds one binder with its values, some of them ahead of it.

What was measured:
human IL-4Rα on cells [1] = molecular target: T1, human IL-4Rα on cells (human, UniProt P24394 26-825); assay: cell-based or functional assay
T1 sequence: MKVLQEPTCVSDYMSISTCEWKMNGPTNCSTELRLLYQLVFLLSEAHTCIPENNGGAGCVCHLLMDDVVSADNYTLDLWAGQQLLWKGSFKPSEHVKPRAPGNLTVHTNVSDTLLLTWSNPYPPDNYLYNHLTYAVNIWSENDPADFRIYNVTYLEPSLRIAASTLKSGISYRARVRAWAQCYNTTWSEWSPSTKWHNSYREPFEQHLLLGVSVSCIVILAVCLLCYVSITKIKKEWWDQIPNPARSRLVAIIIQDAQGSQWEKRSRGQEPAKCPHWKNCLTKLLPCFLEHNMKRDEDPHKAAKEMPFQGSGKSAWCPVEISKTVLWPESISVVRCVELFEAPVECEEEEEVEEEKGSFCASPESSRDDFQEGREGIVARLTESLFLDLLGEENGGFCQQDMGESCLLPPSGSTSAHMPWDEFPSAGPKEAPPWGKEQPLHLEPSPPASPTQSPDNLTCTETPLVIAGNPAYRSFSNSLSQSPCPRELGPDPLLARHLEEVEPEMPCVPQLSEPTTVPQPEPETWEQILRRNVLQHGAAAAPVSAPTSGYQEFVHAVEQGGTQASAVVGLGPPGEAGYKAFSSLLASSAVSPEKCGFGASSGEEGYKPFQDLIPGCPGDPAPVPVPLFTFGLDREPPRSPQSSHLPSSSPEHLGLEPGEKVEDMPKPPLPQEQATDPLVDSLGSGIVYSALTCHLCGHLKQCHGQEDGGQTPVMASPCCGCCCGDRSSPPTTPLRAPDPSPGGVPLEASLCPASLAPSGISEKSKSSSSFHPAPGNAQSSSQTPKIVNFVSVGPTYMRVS

Human C1q = molecular target: T2, Human C1q (human, UniProt P02745 23-245; P02746 28-253; P02747 29-245); assay: ELISA, antibody coated, C1q detected with anti-C1q-HRP
T2 construct: Bought (MS Biomedical); also called complement component C1q
T2 sequence (P02745 23-245 limits assumed, chain 1 of 3): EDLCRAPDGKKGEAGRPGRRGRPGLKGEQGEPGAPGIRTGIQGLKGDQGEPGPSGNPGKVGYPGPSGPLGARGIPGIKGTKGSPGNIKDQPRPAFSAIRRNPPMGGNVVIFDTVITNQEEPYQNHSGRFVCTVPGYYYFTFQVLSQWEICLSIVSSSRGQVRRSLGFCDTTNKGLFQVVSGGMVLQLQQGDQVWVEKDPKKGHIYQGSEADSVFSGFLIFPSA
T2 sequence (P02746 28-253 limits assumed, chain 2 of 3): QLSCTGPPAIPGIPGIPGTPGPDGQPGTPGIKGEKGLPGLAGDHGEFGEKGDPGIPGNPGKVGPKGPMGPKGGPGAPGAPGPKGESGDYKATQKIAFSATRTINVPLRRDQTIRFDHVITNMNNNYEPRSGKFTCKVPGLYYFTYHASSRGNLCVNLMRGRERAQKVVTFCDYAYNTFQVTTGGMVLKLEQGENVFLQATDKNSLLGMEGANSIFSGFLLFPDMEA
T2 sequence (P02747 29-245 limits assumed, chain 3 of 3): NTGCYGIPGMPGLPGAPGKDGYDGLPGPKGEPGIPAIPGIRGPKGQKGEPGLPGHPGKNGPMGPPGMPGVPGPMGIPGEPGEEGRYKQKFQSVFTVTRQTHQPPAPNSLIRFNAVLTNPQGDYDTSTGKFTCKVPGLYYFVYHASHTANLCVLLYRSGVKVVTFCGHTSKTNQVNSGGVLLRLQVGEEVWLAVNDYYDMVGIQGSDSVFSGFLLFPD
Method: The binding of the exemplified anti-IL-4Rα antibodies to human C1q was evaluated by ELISA. 96-well microplates were coated with 100 μL/well of each exemplified antibody diluted in DPBS (Dulbecco's HyClone) from 10 μg/mL to 0.19 g/mL, and incubated overnight at 4° C. The coating reagent was removed, plates were blocked with 200 μL/well casein blocking buffer (Thermo) and incubated for 2 hours at room temperature (RT). Plates were washed 3 times with wash buffer (1×TBE with 0.05% Tween 20), and 10 μg/mL Human C1q (MS Biomedical) diluted in casein blocking reagent is added at 100 μL/well and incubated for 3 hours at RT. Humanized IgG1 and humanized IgG4P isotype control antibodies were used as positive and negative controls respectively. Plates were then washed three times with wash buffer and 100 L/well of a 1:800 times dilution of Sheep anti-human C1q-HRP (Abcam #ab46191) in casein blocker was added and incubated for 1 hour at RT. The plates were then washed 6 times with wash buffer, and 100 μL/well of TMB Substrate (Pierce) was added to each well and incubated for 7 minutes. 100 μL/well of 1 N HCl was added to stop the reaction. Optical density was immediately measured at 450 nm on a colorimetric microplate reader. Data was analyzed using SoftMax Pro 7.1 Data Acquisition and Analysis Software.

human IL-4Rα on cells [2] = molecular target: T1, human IL-4Rα on cells; assay: cell-based or functional assay; remark: listed apart in the source
human IL-4Rα on cells [3] = molecular target: T1, human IL-4Rα on cells; assay: cell-based or functional assay; remark: listed apart in the source
human IL-4Rα on cells [4] = molecular target: T1, human IL-4Rα on cells; assay: cell-based or functional assay; remark: listed apart in the source
human IL-4Rα on cells [5] = molecular target: T1, human IL-4Rα on cells; assay: cell-based or functional assay; remark: listed apart in the source
human IL-4Rα on cells [6] = molecular target: T1, human IL-4Rα on cells; assay: flow cytometry staining of primary human B cells (Th2 cells also confirmed IL-4Rα+)
From the text: Flow cytometry staining was used to assess cell purity on a BD LSRFortessa Cell Analyzer.

Inhibition of CD23 expression on myeloid cells, IL-4 induced IC50 (human IL-4Rα on cells [1]): 18.2 nM | Inhibition of CD23 expression on myeloid cells, IL-13 induced IC50 (human IL-4Rα on cells [1]): 5.37 nM | binding result (Human C1q): no binding | Inhibition of IL-4 induced B cell proliferation IC50 (human IL-4Rα on cells [2]): 1.32 nM | IL-4 IC50 (nM), IL-4 induced SEAP activity in HEK-Blue cells (human IL-4Rα on cells [3]): 0.08 nM | IL-13 IC50 (nM), IL-13 induced SEAP activity in HEK-Blue cells (human IL-4Rα on cells [3]): 0.67 nM | Inhibition of IL-13 induced STAT6 phosphorylation in B cells IC50 (human IL-4Rα on cells [4]): 0.06 µg/mL | Inhibition of IL-4 induced STAT6 phosphorylation, B cells IC50 (human IL-4Rα on cells [5]): 0.05 µg/mL | Inhibition of IL-4 induced STAT6 phosphorylation, T cells IC50 (human IL-4Rα on cells [5]): 0.07 µg/mL
B1: 5559 IgG4P KRQ 124C/378C (antibody)
heavy: QVQLVESGGGLVQPGGSLRLSCVASGFTFSHSSMNWVRQAPGKGLEWVSYISRATGAVYYADSVKGRFTISRDNAKNSLYLQMNSLRDEDTAVYYCAREPVFDYWGQGTLVTVSSASTKGPCVFPLAPCSRSTSESTAALGCLVKDYFPEPVTVSWNSGALTSGVHTFPAVLQSSGLYSLSSVVTVPSSSLGTKTYTCNVDHKPSNTKVDKRVESKYGPPCPPCPAPEFLGGPSVFLFPPKPKDTLMISRTPEVTCVVVDVSQEDPEVKFNWYVDGVEVHNAKTKPREEQFNSTYRVVSVLTVLHQDWLNGKEYKCKVSNKGLPSSIEKTISKAKGQPREPQVYTLPPSREEMTKNQVSLTCLVKGFYPSDICVEWESNGQPENNYKTTPPVLDSDGSFFLYSRLTVDKSRWQQGNVFSCSVMHEALHNHYTQKSLSLSLG
light: DIQMTQSPSAMSASVGDRVTITCRASQDISNYLAWFQQKPGKVPTRLIYAASSLQSGVPSRFSGSGSGTEFTLTISSLQPEDFATYYCLQWSSYPRTFGQGTKVEIKRTVAAPSVFIFPPSDEQLKSGTASVVCLLNNFYPREAKVQWKVDNALQSGNSQESVTEQDSKDSTYSLSSTLTLSKADYEKHKVYACEVTHQGLSSPVTKSFNRGEC

binding result (Human C1q): no binding
B2: 5559 IgG1A 124C/378C (antibody)
heavy: not shown
light: B1 light

IL-4 IC50 (nM), IL-4 induced SEAP activity in HEK-Blue cells (human IL-4Rα on cells [3]): 3.45 nM | IL-13 IC50 (nM), IL-13 induced SEAP activity in HEK-Blue cells (human IL-4Rα on cells [3]): > 35 nM
B3: 5F3 IgG4PAA (antibody, V domains shown)
VH: QVQLVESGGGLVQPGGSLRLSCAASGFTFSISSMNWVRQAPGKGLEWVSYISRATGAIYYADSVKGRFTISRNNAKNSLYLQMNSLRDEDTAVYYCAREPVFDYWGQGTLVTVSS
VL: DIQMTQSPSAMSASVGDRVTITCRASQGISNYLAWFQQKPGKVPTRLIYAASSLQSGVPSRFSGSGSGTEFTLTISSLQPEDFATYYCLQHNSYPRTFGQGTKVEIKR

binding result (human IL-4Rα on cells [6]): binds
B4: 5559-Alexa Fluor-647 (antibody, V domains shown)
VH: B3 VH with A23V, I31H, I58V, N73D
VL: DIQMTQSPSAMSASVGDRVTITCRASQDISNYLAWFQQKPGKVPTRLIYAASSLQSGVPSRFSGSGSGTEFTLTISSLQPEDFATYYCLQWSSYPRTFGQGTKVEIK
modifications: Antibody conjugated to Alexa Fluor 647; the attachment sites are not stated and the letters do not carry the dye.

IL-4 IC50 (nM), IL-4 induced SEAP activity in HEK-Blue cells (human IL-4Rα on cells [3]): 0.03 nM | IL-13 IC50 (nM), IL-13 induced SEAP activity in HEK-Blue cells (human IL-4Rα on cells [3]): 0.24 nM
B5: 8660 IgG4P 124C/378C (antibody, V domains shown)
VH: B3 VH with I31H, I58V, N73D
VL: B3 VL with H91W, N92S
